Measured values taken from PMC8421139 (Nucleic Acids Research, 2021).

Target: Flag-DHX9 recombinant protein (UniProt Q08211 1-1270)
Assay: pull-down

Sequence of Flag-DHX9 recombinant protein (Q08211 whole entry): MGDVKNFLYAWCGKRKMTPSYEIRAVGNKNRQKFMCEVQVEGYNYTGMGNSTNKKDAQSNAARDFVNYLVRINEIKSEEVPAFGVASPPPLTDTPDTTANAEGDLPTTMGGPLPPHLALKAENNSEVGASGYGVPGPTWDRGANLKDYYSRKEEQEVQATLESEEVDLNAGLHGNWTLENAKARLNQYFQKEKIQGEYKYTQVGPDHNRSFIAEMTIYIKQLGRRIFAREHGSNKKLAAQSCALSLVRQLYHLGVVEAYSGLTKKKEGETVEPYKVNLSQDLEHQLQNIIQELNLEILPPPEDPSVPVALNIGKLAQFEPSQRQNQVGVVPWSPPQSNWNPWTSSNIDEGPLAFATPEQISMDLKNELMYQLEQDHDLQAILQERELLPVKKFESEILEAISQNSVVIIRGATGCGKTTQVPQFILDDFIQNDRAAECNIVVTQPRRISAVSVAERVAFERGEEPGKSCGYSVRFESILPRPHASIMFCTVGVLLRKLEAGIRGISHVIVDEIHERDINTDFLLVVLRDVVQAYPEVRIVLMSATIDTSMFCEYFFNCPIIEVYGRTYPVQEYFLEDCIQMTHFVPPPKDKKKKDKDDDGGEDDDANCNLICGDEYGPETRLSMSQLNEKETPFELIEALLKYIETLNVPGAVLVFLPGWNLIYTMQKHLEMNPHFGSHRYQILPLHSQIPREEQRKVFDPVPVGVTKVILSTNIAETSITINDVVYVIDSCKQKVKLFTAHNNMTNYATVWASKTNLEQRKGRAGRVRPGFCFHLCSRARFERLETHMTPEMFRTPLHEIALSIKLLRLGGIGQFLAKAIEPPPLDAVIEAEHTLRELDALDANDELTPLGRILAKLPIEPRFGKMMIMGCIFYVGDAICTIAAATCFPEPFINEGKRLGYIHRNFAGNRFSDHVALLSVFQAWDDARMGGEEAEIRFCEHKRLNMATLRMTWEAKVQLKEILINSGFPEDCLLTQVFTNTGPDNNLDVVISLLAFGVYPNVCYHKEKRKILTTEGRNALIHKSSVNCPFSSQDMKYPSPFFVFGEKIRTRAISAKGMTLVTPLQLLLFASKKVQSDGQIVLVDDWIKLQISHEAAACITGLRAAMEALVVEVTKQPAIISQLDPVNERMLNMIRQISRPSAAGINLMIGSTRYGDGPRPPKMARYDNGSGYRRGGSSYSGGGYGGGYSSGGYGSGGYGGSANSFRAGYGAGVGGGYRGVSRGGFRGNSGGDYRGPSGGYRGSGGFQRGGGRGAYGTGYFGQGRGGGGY

B1: GST-TDRD3 (natural protein)
chain: MAQVAGAALSQAGWYLSDEGIEACTSSPDKVNVNDIILIALNTDLRTIGKKFLPSDINSGKVEKLEGPCVLQIQKIRNVAAPKDNEESQAAPRMLRLQMTDGHISCTAVEFSYMSKISLNTPPGTKVKLSGIVDIKNGFLLLNDSNTTVLGGEVEHLIEKWELQRSLSKHNRSNIGTEGGPPPFVPFGQKCVSHVQVDSRELDRRKTLQVTMPVKPTNDNDEFEKQRTAAIAEVAKSKETKTFGGGGGGARSNLNMNAAGNRNREVLQKEKSTKSEGKHEGVYRELVDEKALKHITEMGFSKEASRQALMDNGNNLEAALNVLLTSNKQKPVMGPPLRGRGKGRGRIRSEDEEDLGNARPSAPSTLFDFLESKMGTLNVEEPKSQPQQLHQGQYRSSNTEQNGVKDNNHLRHPPRNDTRQPRNEKPPRFQRDSQNSKSVLEGSGLPRNRGSERPSTSSVSEVWAEDRIKCDRPYSRYDRTKDTSYPLGSQHSDGAFKKRDNSMQSRSGKGPSFAEAKENPLPQGSVDYNNQKRGKRESQTSIPDYFYDRKSQTINNEAFSGIKIEKHFNVNTDYQNPVRSNSFIGVPNGEVEMPLKGRRIGPIKPAGPVTAVPCDDKIFYNSGPKRRSGPIKPEKILESSIPMEYAKMWKPGDECFALYWEDNKFYRAEVEALHSSGMTAVVKFIDYGNYEEVLLSNIKPIQTEAWEEEGTYDQTLEFRRGGDGQPRRSTRPTQQFYQPPRARN
B1: binds.
